The text below walks through data of publication PMC7156504.

For experiment [1], the target named is scFvWFL, single chain variant (scFv) of MEDI1912 (human). Kind of experiment: cross-linking; scFv 15 µM in 100 mM sodium phosphate pH 7.4, d0/d4-BS3 (50:50) at 50x, 100x, 200x and 500x molar excess, 30 min at 25 °C; SDS-PAGE densitometry and LC-MS/MS of the dimer bands.
For experiment [2], the target named is scFvSTT, scFv of MEDI1912 with W35S, F36T and L64T in VH (human). Described as above.

B1: scFvWFL, single chain variant (scFv) of MEDI1912 (scFv, V domains shown)
VH: QVQLVQSGAEVKKPGSSVKVSCKASGGTFWFGAFTWVRQAPGQGLEWMGGIIPIFGLTNLAQNFQGRVTITADESTSTVYMELSSLRSEDTAVYYCARSSRIYDLNPSLTAYYDMDVWGQGTMVTVSS
VL: QSVLTQPPSVSAAPGQKVTISCSGSSSDIGNNYVSWYQQLPGTAPKLLIYDNNKRPSGIPDRFSGSKSGTSATLGITGLQTGDEADYYCGTWDSSLSAWVFGGGTKLTVL
Regarding B1, the percent incorporated into higher-order oligomers in experiment [1] is 45%.

B2: scFvSTT, scFv of MEDI1912 with W35S, F36T and L64T in VH (scFv, V domains shown)
VH: QVQLVQSGAEVKKPGSSVKVSCKASGGTFSTGAFTWVRQAPGQGLEWMGGIIPIFGTTNLAQNFQGRVTITADESTSTVYMELSSLRSEDTAVYYCARSSRIYDLNPSLTAYYDMDVWGQGTMVTVSS
VL: QSVLTQPPSVSAAPGQKVTISCSGSSSDIGNNYVSWYQQLPGTAPKLLIYDNNKRPSGIPDRFSGSKSGTSATLGITGLQTGDEADYYCGTWDSSLSAWVFGGGTKLTVL
B2 showed a percent remaining monomeric in experiment [2] of 99%.
